This is an account of results in patent US20080160018A1 (PDL BIOPHARMA, published 2008).

The target of experiment [1] is T1, p75 chain of the human IL-2 receptor on YTJB cells (human, UniProt P14784 27-551).
T1 construct: whole, on cells; also called p75 protein; p75 antigen
T1 sequence (looked up): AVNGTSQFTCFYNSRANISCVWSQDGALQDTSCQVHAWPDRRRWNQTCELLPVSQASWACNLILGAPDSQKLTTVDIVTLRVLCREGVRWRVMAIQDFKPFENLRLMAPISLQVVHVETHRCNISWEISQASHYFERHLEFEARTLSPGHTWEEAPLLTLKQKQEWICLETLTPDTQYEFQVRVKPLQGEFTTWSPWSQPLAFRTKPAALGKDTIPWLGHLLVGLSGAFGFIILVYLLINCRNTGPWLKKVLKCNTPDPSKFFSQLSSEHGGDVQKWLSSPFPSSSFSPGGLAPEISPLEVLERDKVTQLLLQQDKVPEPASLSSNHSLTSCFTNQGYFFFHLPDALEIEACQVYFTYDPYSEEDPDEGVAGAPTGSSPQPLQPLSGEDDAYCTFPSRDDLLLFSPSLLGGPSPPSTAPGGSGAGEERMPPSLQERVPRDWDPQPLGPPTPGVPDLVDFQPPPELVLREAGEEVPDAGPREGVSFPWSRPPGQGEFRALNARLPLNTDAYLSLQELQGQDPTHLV
Description: flow cytometry on YTJB cells. (In general: A flow cytometer gives signals particle by particle.)
Description: Cells were suspended in FACS buffer (PBS+2% BSA+0.1% azide) at approximately 5×10⁶/ml. 100 ul of cell suspension was transferred to a polystyrene tube and incubated with 100 ng of purified antibody on ice for 30 min. The cells were washed with FACS buffer and incubated with goat anti-human Ig antibody on ice for another 30 min. Then the cells were washed and incubated with FITC labeled rabbit anti-goat Ig antibody for 30 min. The cells were washed again and finally resuspended in PBS+1% paraformaldehyde. Cells were analyzed on a FACSmate (Becton Dickinson).

The target in experiment [2] is T1, p75 chain of the human IL-2 receptor on …. The experiment in a line: competition with radio-iodinated mouse mik-β1 on YTJB cells, Berzofsky calculation.
Description: After incubation for 2 hr at 0° C. the cells were washed twice with binding buffer without mouse Ig and collected by centrifugation. The radioactivity bound to cells was measured and expressed as the ratio of bound/free cpm.

B1: chimeric mik-β1 antibody (antibody, V domains shown)
VH: QVQLKQSGPGLVQPSQSLSITCTVSGFSVTSYGVHWIRQSPGKGLEWLGVIWSGGSTDYNAAFISRLTISKDNSKSQVFFKVNSLQPADTAIYYCARAGDYNYDGFAYWGQGTLVTVSA
VL: QIVLTQSPAIMSASPGEKVTMTCSGSSSVSFMYWYQQRPGSSPRLLIYDTSNLASGVPVRFSGSGSGTSYSLTISRMEAEDAATYYCQQWSTYPLTFGAGTKLELK
B1: in experiment [1], the binding result is reported as “binds”.

B2: humanized mik-β1 antibody (antibody, V domains shown)
VH: EVQLLESGGGLVQPGGSLRLSCAASGFTVTSYGVHWVRQAPGKGLEWVGVIWSGGSTDYNAAFISRFTISRDNSKNTLYLQMNSLQAEDTAIYYCARAGDYNYDGFAYWGQGTLVTVSS
VL: DIQMTQSPSSLSASVGDRVTITCSGSSSVSFMYWYQQKPGKAPKLLIYDTSNLASGVPSRFSGSGSGTDYTFTISSLQPEDIATYYCQQWSTYPLTFGQGTKVEVK
As for B2, in experiment [2], the “fold difference of binding affinity against the mouse mik-β1 antibody” value is at most 2 fold.
